This note sets out measurements from US20240238420A1 (WUHAN UNIVERSITY, published 2024).

Assay [1] has as its target CD123 combined mutant R84Q-V85I (Homo sapiens (Human)) (UniProt P26951). Kind of assay: scFv-luciferase binding to transfected HEK 293T cells (FIG. 4A).
The target in assay [2] is CD123 combined mutant R84Q-V85M (Homo sapiens (Human)) (UniProt P26951). The description is as above.
The target of the next assay is T1, wild-type CD123 protein (Homo sapiens (Human), UniProt P26951 19-378).
T1 construct: no signal peptide limits are stated; also called alpha chain of interleukin-3 receptor
Briefly: scFv-luciferase binding to HEK 293T cells transfected with wildtype or mutant CD123. Here is the method: HEK 293T cells were transfected with wildtype or indicated CD123 mutant and then incubated with anti-CD123 scFv-luciferase fusion proteins. (B) Western blot of CD123 expression. HEK293T cells were transfected with flag tagged wild-type or indicated CD123 mutants.
HEK 293T cells were transfected with wildtype or indicated CD123 mutant and then incubated with anti-CD123 scFv-luciferase fusion proteins. […] The expression of these mutants was confirmed by Western blot (FIG. 3B).

Another assay addresses T2, wild-type CD33 protein (Homo sapiens (Human), UniProt P20138 18-364).
T2 construct: Expressed in transfected HEK 293T cells; A flag tag is mentioned for the Western blot constructs; no signal peptide limits are stated; also called Siglec3
Kind of assay: scFv-luciferase binding to HEK 293T cells transfected with wildtype or mutant CD33 (RLU). On the procedure: FIG. 1A-D. Determination of epitopes of CD33 that mediate the interaction by anti-CD33 scFv clone my9.6 or HM195. (A) Binding affinity of indicated CD33 mutations with anti-CD33 scFV clone my9.6. HEK 293T cells were transfected with wildtype or indicated CD33 mutant and then incubated with anti-CD33 scFV-luciferase fusion proteins, RLU: relative luminescence units. (B) Western blot of CD33 expression. HEK293T cells were transfected with flag tagged wild-type or indicated CD33 mutants. (C) Binding affinity of additional CD33 mutations. RLU: relative luminescence units (D) Western blot of CD33 expression. HEK293T cells were transfected with flag tagged wild-type or indicated CD33 mutants.
HEK 293T cells were transfected with wildtype or certain CD33 mutants and then incubated with anti-CD33 scFV-luciferase fusion proteins. The mutated residues included W22, C41, W60, I105, D112, Y116, F118, S131, and P132. The tested antibodies included my9.6 and HM195. […] FIGS. 1B and […] present Western blot images of CD33 expression from the transfected cells.

Sequence of CD123 combined mutant R84Q-V85M (Homo sapiens (Human)) (P26951 19-378 R84Q/V85M limits assumed): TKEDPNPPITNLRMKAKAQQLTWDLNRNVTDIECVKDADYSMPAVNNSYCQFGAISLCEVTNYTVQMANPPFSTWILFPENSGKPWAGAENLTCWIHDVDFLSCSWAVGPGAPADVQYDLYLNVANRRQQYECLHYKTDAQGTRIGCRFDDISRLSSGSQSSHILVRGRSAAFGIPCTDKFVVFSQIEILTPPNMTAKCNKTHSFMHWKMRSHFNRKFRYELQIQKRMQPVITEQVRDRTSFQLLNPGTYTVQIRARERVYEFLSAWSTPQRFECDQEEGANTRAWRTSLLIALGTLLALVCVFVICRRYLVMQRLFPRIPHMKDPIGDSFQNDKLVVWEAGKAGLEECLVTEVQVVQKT
Sequence of CD123 combined mutant R84Q-V85I (Homo sapiens (Human)) (P26951 19-378 R84Q/V85I limits assumed): as the sequence (P26951 19-378 R84Q/V85M limits assumed) above, with M67I counted along it
T1 sequence (P26951 19-378 limits assumed): as the sequence (P26951 19-378 R84Q/V85M limits assumed) above, with Q66R, M67V counted along it
T2 sequence (P20138 18-364 limits assumed): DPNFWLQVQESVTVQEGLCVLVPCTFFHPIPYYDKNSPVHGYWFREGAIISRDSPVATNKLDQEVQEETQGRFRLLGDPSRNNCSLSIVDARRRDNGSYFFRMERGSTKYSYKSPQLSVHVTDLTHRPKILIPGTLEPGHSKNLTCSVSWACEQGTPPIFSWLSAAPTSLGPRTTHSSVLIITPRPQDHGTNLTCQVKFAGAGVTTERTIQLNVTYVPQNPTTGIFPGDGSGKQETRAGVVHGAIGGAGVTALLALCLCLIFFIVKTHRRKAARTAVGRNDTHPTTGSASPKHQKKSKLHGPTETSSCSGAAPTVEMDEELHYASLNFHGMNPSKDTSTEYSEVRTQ

Turning to “anti-CD123 scFv clone CSL362, scFv-luciferase fusion protein”, the fold decrease of affinity (combined mutant against reference) in assay [1] and in assay [2] was 100 fold each time.

B1: anti-CD123 scFv clone 32716, scFv-luciferase fusion protein (scFv, V domains shown)
VH: QIQLVQSGPELKKPGETVKISCKASGYIFTNYGMNWVKQAPGKSFKWMGWINTYTGESTYSADFKGRFAFSLETSASTAYLHINDLKNEDTATYFCARSGGYDPMDYWGQGTSVTVSS
VL: DIVLTQSPASLAVSLGQRATISCRASESVDNYGNTFMHWYQQKPGQPPKLLIYRASNLESGIPARFSGSGSRTDFTLTINPVEADDVATYYCQQSNEDPPTFGAGTKLELK
With B1, in the assay with wild-type CD123 protein, the binding result was “binds”.

B2: anti-CD33 scFv clone HM195, scFv-luciferase fusion protein (scFv, V domains shown)
VH: QVQLVQSGAEVKKPGSSVKVSCKASGYTFTDYNMHWVRQAPGQGLEWIGYIYPYNGGTGYNQKFKSKATITADESTNTAYMELSSLRSEDTAVYYCARGRPAMDYWGQGTLVTVSS
VL: DIQMTQSPSSLSASVGDRVTITCRASESVDNYGISFMNWFQQKPGKAPKLLIYAASNQGSGVPSRFSGSGSGTDFTLTISSLQPDDFATYYCQQSKEVPWTFGQGTKVEIK
notes: Tested as an scFv-luciferase fusion protein
With B2, the binding result with wild-type CD33 protein is given as “binds”.
